Laboratory results: publication PMC10450195, “Histone divergence in trypanosomes results in unique alterations to nucleosome structure” (Nucleic Acids Research, 2023)

T1: Trypanosoma brucei histone H2A (Trypanosoma brucei brucei, UniProt Q57YA3 2-134)
T1 construct: also called Tb H2A
T1 sequence: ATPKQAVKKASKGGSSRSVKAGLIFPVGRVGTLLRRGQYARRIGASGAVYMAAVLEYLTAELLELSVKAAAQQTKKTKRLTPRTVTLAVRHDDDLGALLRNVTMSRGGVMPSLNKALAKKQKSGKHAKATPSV

B1: Trypanosoma brucei histone H4 (natural protein)
chain: not shown
notes: also called Tb H4
B2: Trypanosoma brucei histone H2B (natural protein, Trypanosoma brucei brucei)
chain: ATPKSTPAKTRKEAKKTRRQRKRTWNVYVSRSLRSINSQMSMTSRTMKIVNSFVNDLFERIAAEAATIVRVNRKRTLGARELQTAVRLVLPADLAKHAMAEGTKAVSHASS
notes: also called Tb H2B

Legend:
[1] = target: B2; test: cryo-EM structure; conditions: both partners purified
[2] = target: T1, Trypanosoma brucei histone H2A; test: cryo-EM structure; conditions: both partners purified

Binder	binding result [1]	binding result [2]
B1	binds	–
B2	–	binds
